Like-named read-outs stand apart in the source and are kept apart here. Values belong to the substance of their own block, whether it stands above or below them.
How the values were obtained:
[1] = molecular target: Pertuzumab light chain (kappa) V133G_S176D_T180E, HA-tagged; assay: LCCA
[2] = molecular target: Pertuzumab light chain (kappa) V133G_S176D_T178E, HA-tagged; assay: LCCA
[3] = molecular target: Pertuzumab light chain (kappa) V133G_S176D_T180E, HA-tagged; assay: LCCA; remark: listed apart in the source
[4] = molecular target: Pertuzumab light chain (kappa) V133G_S176D_T178E, HA-tagged; assay: LCCA; remark: listed apart in the source
[5] = molecular target: CAT-2200 lambda light chain E124Q_T131K; assay: LCCA, SPR
[6] = molecular target: Pertuzumab kappa light chain V133G_S176D_T178E; assay: LCCA, SPR
[7] = molecular target: Pertuzumab kappa light chain V133G_S176D_T180E; assay: LCCA, SPR
[8] = molecular target: Pertuzumab kappa light chain V133G_L135W_S176D_T180E; assay: LCCA, SPR tag read-out
[9] = molecular target: Pertuzumab kappa light chain V133G_S176D_T178E; assay: LCCA, SPR; remark: listed apart in the source
[10] = molecular target: Pertuzumab kappa light chain V133G_S176D_T180E; assay: LCCA, SPR; remark: listed apart in the source
[11] = molecular target: Pertuzumab kappa light chain Q124R_S176A_T178R; assay: LCCA, SPR
[12] = molecular target: Pertuzumab kappa light chain Q124R_Q160R_S176A_T178R; assay: LCCA, SPR
[13] = molecular target: CAT-2200 lambda light chain K129T_V133D; assay: LCCA, SPR
[14] = molecular target: Pertuzumab kappa light chain Q124E_V133G_S176D_T178D; assay: LCCA
[15] = molecular target: Pertuzumab kappa light chain S131K_L135K; assay: LCCA, SPR tag read-out
[16] = molecular target: Pertuzumab kappa light chain S121K_Q124E_V133D; assay: LCCA, SPR tag read-out
[17] = molecular target: Pertuzumab kappa light chain Q124K_L135A_T178R; assay: LCCA
[18] = molecular target: Pertuzumab kappa light chain Q124E_V133D_L135A; assay: LCCA, SPR tag read-out
[19] = molecular target: Recombinant human IL-17A (human) (UniProt Q16552); assay: SPR
Recombinant human IL-17A (human), sequence (Q16552 20-155 limits assumed): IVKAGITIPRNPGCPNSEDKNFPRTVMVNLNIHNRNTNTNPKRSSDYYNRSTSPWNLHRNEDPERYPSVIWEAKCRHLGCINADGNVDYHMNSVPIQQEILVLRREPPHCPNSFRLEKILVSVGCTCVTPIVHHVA

[20] = molecular target: Recombinant human IL-17A (human) (UniProt Q16552); assay: SPR; remark: listed apart in the source
[21] = molecular target: Recombinant human IL-17A (human) (UniProt Q16552); assay: SPR; remark: listed apart in the source
[22] = molecular target: Pertuzumab kappa light chain S121K_Q124R_Q160K_T178R; assay: LCCA
[23] = molecular target: Pertuzumab kappa light chain S121K_Q124R_T178R; assay: LCCA
[24] = molecular target: CAT-2200 lambda light chain S122D_K129T_S180E; assay: LCCA
[25] = molecular target: Pertuzumab kappa light chain S131R_V133G_S176R_T178A (L2), HA-tagged; assay: LCCA, SPR of light-chain tags
[26] = molecular target: Pertuzumab kappa light chain S131K_V133G_S176R_T178A (L2), HA-tagged; assay: LCCA, SPR of light-chain tags
[27] = molecular target: Pertuzumab kappa light chain S131R_V133G_S176R_T178A (L2), HA-tagged; assay: LCCA, SPR of light-chain tags; remark: listed apart in the source
[28] = molecular target: CAT-2200 Fab heavy chain S188K; assay: LCCA
[29] = molecular target: CAT-2200 heavy chain Fab construct (H1) Q39K; assay: LCCA, SPR tag read-out
[30] = molecular target: Pertuzumab kappa light chain P44F_V133G_S176D_T180E; assay: LCCA, SPR tag read-out
[31] = molecular target: Pertuzumab kappa light chain P44F_V133G_S176D_T180E; assay: LCCA, SPR tag read-out; remark: listed apart in the source
[32] = molecular target: CAT-2200 lambda light chain E124Q_T131R; assay: LCCA, SPR tag read-out
[33] = molecular target: Pertuzumab kappa light chain Q124R_L135A_Q160K_T178R; assay: LCCA
[34] = molecular target: CAT-2200 heavy chain Fab construct (H1) S186R; assay: LCCA, SPR tag read-out
[35] = molecular target: CAT-2200 lambda light chain T116F_S176F (L1), N-terminal FLAG tag; assay: LCCA, SPR of light chain tags
[36] = molecular target: Pertuzumab kappa light chain V133A (L2), N-terminal HA tag; assay: LCCA, SPR of light chain tags
[37] = molecular target: Pertuzumab kappa light chain S131R_V133S_L135K; assay: LCCA, SPR
[38] = molecular target: CAT-2200 lambda light chain K129T_V133D; assay: LCCA, SPR; remark: listed apart in the source
[39] = molecular target: Pertuzumab kappa light chain S131R_V133G_S176R_T178A; assay: LCCA, SPR
[40] = molecular target: Pertuzumab kappa light chain S131K_V133G_S176R_T178A; assay: LCCA, SPR
[41] = molecular target: Pertuzumab kappa light chain P44F_S131R_V133G_S176R; assay: LCCA, SPR tag read-out
[42] = molecular target: Pertuzumab kappa light chain V133A_S176K_T178A (L2), HA-tagged; assay: LCCA, SPR of light-chain tags
[43] = molecular target: Pertuzumab kappa light chain V133G_S176R_T178A (L2), HA-tagged; assay: LCCA, SPR of light-chain tags
[44] = molecular target: Pertuzumab kappa light chain V133A_S176K_T178A (L2), HA-tagged; assay: LCCA, SPR of light-chain tags; remark: listed apart in the source
[45] = molecular target: Pertuzumab kappa light chain V133G_S176R_T178A (L2), HA-tagged; assay: LCCA, SPR of light-chain tags; remark: listed apart in the source
[46] = molecular target: Pertuzumab kappa light chain V133G_L135W_S176D_T180E; assay: LCCA, SPR tag read-out; remark: listed apart in the source
[47] = molecular target: CAT-2200 lambda light chain E124Q_T131R; assay: LCCA, SPR
[48] = molecular target: Pertuzumab kappa light chain P44F_Q124R_T178R; assay: LCCA, SPR tag read-out

H2L2:H2L1 normalized median scalar value ln(r1/f1) [1]: 1.47
H2L2:H2L1 normalized median scalar value ln(r1/f1) [2]: 1.12
H2L2:H2L1 normalized median scalar value ln(r1/f1) [3]: 1.32
H2L2:H2L1 normalized median scalar value ln(r1/f1) [4]: 1.22
Substance: Pertuzumab heavy chain Fab construct L124R_S186K

H2L2:H2L1 normalized median ratio [5]: 26%
H2L2:H2L1 normalized median scalar value ln(r1/f1) [6]: 1.18
H2L2:H2L1 normalized median scalar value ln(r1/f1) [7]: 1.47
H2L2:H2L1 median scalar value [8]: 0.23 ln(ratio)
H2L2:H2L1 normalized median scalar value ln(r1/f1) [9]: 1.04
H2L2:H2L1 normalized median scalar value ln(r1/f1) [10]: 1.5
Substance: Pertuzumab Fab heavy chain L124R_S186R

H2L2:H2L1 median scalar value [14]: -0.29 ln
Substance: Pertuzumab Fab heavy chain L124K_S188K

H2L2:H2L1 median scalar value [15]: 0.85 ln(ratio)
Substance: Pertuzumab Fab heavy chain L124E_K145T

H2L2:H2L1 median scalar value [18]: -0.49 ln(ratio)
Substance: Pertuzumab Fab heavy chain L143I_S186K_V190F

Change in KD of H1L1 Fab vs wild type [19]: -0.13
Change in KD of H1L1 Fab vs wild type, -(log(KD design)-log(KD wt)) [19]: -0.13
Kd [19]: 0.37 nM
Kd [20]: 0.37 nM
Substance: CAT-2200 Fab heterodimer (H1L1) with H1 S188K and L1 S176D_Y178E

H2L2:H2L1 normalized median scalar value ln(r1/f1) [25]: 1.24
H2L2:H2L1 normalized median scalar value ln(r1/f1) [26]: 0.9
H2L2:H2L1 normalized median scalar value ln(r1/f1) [27]: 1.55
Substance: Pertuzumab Fab heavy chain L124E_K145T_Q179E_S186I_S188W (H2)

H1L1:H1L2 median scalar value (ln(H1L1:H1L2)) [28]: 1.8
Substance: CAT-2200 lambda light chain K129T_S176E_Y178E

H1L1:H1L2 normalized median scalar value ln(r1/f1) [29]: 0.91
Substance: CAT-2200 lambda light chain construct (L1) Q38D, FLAG-tagged

H2L2:H2L1 median scalar value [33]: -0.23 ln
Substance: Pertuzumab Fab heavy chain L143E_K145T_V190F

H2L2:H2L1 median scalar value [18]: -0.45 ln(ratio)
Substance: Pertuzumab Fab heavy chain S186K_V190F

H1L1:H1L2 normalized median scalar value ln(r1/f1) [29]: 0.61
Substance: CAT-2200 lambda light chain construct (L1) Q38E, FLAG-tagged

H2L2:H2L1 median scalar value [16]: -0.18 ln(ratio)
Substance: Pertuzumab Fab heavy chain L143I_S186K_K228D

H2L2:H2L1 normalized median ratio [37]: 80%
H2L2:H2L1 normalized median scalar value ln(r1/f1) [37]: 1.38
H2L2:H2L1 normalized median ratio [13]: 20%
Substance: Pertuzumab Fab heavy chain L124E_K145T_S186E

Kd [19]: 0.282 nM
Kd [21]: 0.287 nM
Substance: CAT-2200 wild type one-armed antibody (OAA), no tags

Change in KD of H1L1 Fab vs wild type [19]: 0.08
Kd [20]: 0.23 nM
Substance: CAT-2200 Fab heterodimer (H1L1) with H1 V177I_S188K and L1 V133I_S176D_Y178E

H2L2:H2L1 normalized median ratio [38]: 4%
H2L2:H2L1 normalized median ratio [39]: 96%
H2L2:H2L1 normalized median scalar value ln(r1/f1) [39]: 3.12
H2L2:H2L1 normalized median ratio [40]: 91%
H2L2:H2L1 normalized median scalar value ln(r1/f1) [40]: 2.31
H2L2:H2L1 normalized median ratio [13]: 9%
Substance: Pertuzumab Fab heavy chain L124E_K145T_Q179E_S188W

Kd [19]: 0.373 nM
Kd [21]: 0.35 nM
Substance: CAT-2200 wild type one-armed antibody (OAA), HA-tagged light chain

Change in KD of H1L1 Fab vs wild type [19]: -0.12
Kd [20]: 0.36 nM
Substance: CAT-2200 Fab heterodimer (H1L1) with H1 S188K and L1 S176E_Y178E

H2L2:H2L1 median scalar value [48]: 3.81 ln(ratio)
H2L2:H2L1 normalized median ratio [48]: 98%
Substance: Pertuzumab Fab heavy chain L45P_L143E_K145T_Q179E

Second part, the substance before the results:

Substance: Pertuzumab Fab heavy chain L143E_K145T_Q179E_S188W
H2L2:H2L1 normalized median scalar value ln(r1/f1) [11]: 2.83
H2L2:H2L1 normalized median ratio [12]: 85%
H2L2:H2L1 normalized median scalar value ln(r1/f1) [12]: 1.71
H2L2:H2L1 normalized median ratio [13]: 15%

Substance: Pertuzumab Fab heavy chain S186K_K228D
H2L2:H2L1 median scalar value [16]: -0.5 ln(ratio)

Substance: Pertuzumab Fab heavy chain L143E_K145T_Q179E_S188F_V190F
H2L2:H2L1 median scalar value [17]: -0.51 ln

Substance: Pertuzumab Fab heavy chain L124R_S188K
H2L2:H2L1 median scalar value [14]: 0.54 ln

Substance: CAT-2200 wild type one-armed antibody (OAA), FLAG-tagged light chain
Kd [19]: 0.375 nM
Kd [21]: 0.366 nM

Substance: Pertuzumab Fab heavy chain L143E_K145T_K228D
H2L2:H2L1 median scalar value [22]: -0.24 ln
H2L2:H2L1 median scalar value [23]: 2.19 ln
H2L2:H2L1 normalized median ratio [23]: 72%
H2L2:H2L1 normalized median ratio [24]: 28%

Substance: Pertuzumab Fab heavy chain L143R_V190F
H2L2:H2L1 median scalar value [18]: 1.25 ln(ratio)

Substance: Pertuzumab Fab heavy chain L45P_L124R_Q179K
H2L2:H2L1 median scalar value [30]: 1.84 ln(ratio)
H2L2:H2L1 normalized median ratio [30]: 86%
H2L2:H2L1 median scalar value [31]: 1.45 ln(ratio)
H2L2:H2L1 normalized median ratio [31]: 81%
H2L2:H2L1 normalized median ratio [32]: 14%

Substance: CAT-2200 lambda light chain S176E_Y178E
H1L1:H1L2 median scalar value (ln(H1L1:H1L2)) [28]: 1.01

Substance: CAT-2200 lambda light chain construct (L1) K129T_S180E, FLAG-tagged
H1L1:H1L2 normalized median scalar value ln(r1/f1) [34]: 1.94

Substance: Pertuzumab Fab heavy chain S188F (H2), ABD2-His6 tagged
H2L2:H2L1 normalized median ratio [35]: 28%
H2L2:H2L1 normalized median ratio [36]: 72%
H2L2:H2L1 normalized median scalar value ln(r1/f1) [36]: 0.93

Substance: Pertuzumab Fab heavy chain L124E_K145T_Q179E_S186I_S188W
H2L2:H2L1 normalized median ratio [38]: 12%
H2L2:H2L1 normalized median ratio [39]: 88%
H2L2:H2L1 normalized median scalar value ln(r1/f1) [39]: 2.04
H2L2:H2L1 normalized median ratio [40]: 84%
H2L2:H2L1 normalized median scalar value ln(r1/f1) [40]: 1.69
H2L2:H2L1 normalized median ratio [13]: 16%

Substance: Pertuzumab Fab heavy chain L143E_K145T_Q179E_S186I_S188W
H2L2:H2L1 normalized median scalar value ln(r1/f1) [11]: 2.8
H2L2:H2L1 normalized median scalar value ln(r1/f1) [12]: 1.42

Substance: Pertuzumab Fab heavy chain L45P_L124E_K145T_Q179E
H2L2:H2L1 median scalar value [41]: 3.9 ln(ratio)
H2L2:H2L1 normalized median ratio [41]: 97%

Substance: Pertuzumab Fab heavy chain L124E_S186I_S188W (H2)
H2L2:H2L1 normalized median scalar value ln(r1/f1) [42]: 0.65
H2L2:H2L1 normalized median scalar value ln(r1/f1) [43]: 0.94
H2L2:H2L1 normalized median scalar value ln(r1/f1) [44]: 1.03
H2L2:H2L1 normalized median scalar value ln(r1/f1) [45]: 1.19

Substance: Pertuzumab Fab heavy chain L124R_S186K
H2L2:H2L1 normalized median ratio [5]: 25%
H2L2:H2L1 normalized median scalar value ln(r1/f1) [6]: 1.22
H2L2:H2L1 normalized median scalar value ln(r1/f1) [7]: 1.32
H2L2:H2L1 median scalar value [46]: 0 ln(ratio)
H2L2:H2L1 median scalar value [8]: 0 ln(ratio)
H2L2:H2L1 normalized median ratio [47]: 21%
H2L2:H2L1 normalized median scalar value ln(r1/f1) [9]: 1.12
H2L2:H2L1 normalized median scalar value ln(r1/f1) [10]: 1.47

Reference: patent publication US20190338048A1
